How the values were obtained:
hDLL3-MC38 tumors = assay: Efficacy (tumor growth) in hDLL3-MC38 tumor model; assay type: in vivo, mouse; details: tumor volume in mm^3, hDLL3-MC38
Experimental: To determine the efficacy of radio-labelled (Pb-212) DARPin (MAM160) conjugate in inhibiting the growth of tumors that express DLL3, different dose regimens (single or repeated dose) of the conjugate were tested in a mouse tumor model (hDLL3-MC38).
The first injections were done 7 days after the xenografts. Animals were under observation daily and 3× per week tumors were measured by caliper. Animals were sacrificed when tumors reached 1000 mm^3 or if termination criteria were met. The data were expressed as average+/−SEM of tumor volume in mm^3.

mouse DLL3-ECD = molecular target: T1, mouse DLL3-ECD (Mus musculus, UniProt O88516); assay: SPR, immobilized DARPin, binding of mouse DLL3-ECD (Example 17); details: immobilized biotinylated DARPin, DLL3-ECD as analyte, 1:1 Langmuir, Table 20
T1 construct: the extracellular domain of DLL3 (DLL3-ECD) from human, cynomolgus monkey, mouse and pig
T1 sequence (O88516 33-490 limits assumed): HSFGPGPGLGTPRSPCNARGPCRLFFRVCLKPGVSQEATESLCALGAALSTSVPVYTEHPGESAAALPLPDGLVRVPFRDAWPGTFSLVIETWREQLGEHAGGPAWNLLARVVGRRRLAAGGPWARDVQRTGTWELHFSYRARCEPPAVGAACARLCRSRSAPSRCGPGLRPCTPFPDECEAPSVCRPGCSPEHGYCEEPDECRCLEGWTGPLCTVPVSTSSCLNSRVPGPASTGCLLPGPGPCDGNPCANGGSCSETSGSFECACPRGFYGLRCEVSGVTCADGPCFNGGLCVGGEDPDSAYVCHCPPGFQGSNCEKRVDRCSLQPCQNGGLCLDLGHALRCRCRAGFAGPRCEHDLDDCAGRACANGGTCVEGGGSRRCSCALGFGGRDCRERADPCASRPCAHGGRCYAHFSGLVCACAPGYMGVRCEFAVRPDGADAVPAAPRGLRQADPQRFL
Experimental: Kinetic binding parameters and binding affinities of two domain (2D) ankyrin repeat protein MAM279 and single domain (1 D) ankyrin repeat protein MAM093 to DLL3 from different species were determined. The DLL3-specific ankyrin repeat domain of MAM093 is identical to the DLL3-specific ankyrin repeat domain comprised in MAM279.
SPR multi-trace analyses were performed similarly as described in Examples 1 and 11. Here, the binding kinetics of immobilized DARPin proteins to the extracellular domain of DLL3 (DLL3-ECD) from human, cynomolgus monkey, mouse and pig were determined. Various concentrations of recombinant DLL3-ECD starting from 500 nM were applied to immobilized biotinylated 2D DARPin (MAM279; SEQ ID NO: 11) or 1 D DARPin (MAM093; SEQ ID NO: 1) (both with a Glycine-Serine (GS) at the N-terminal end) for on-rate and off-rate measurements.
Streptavidin SAHC200M (Xantec) SPR chip was conditioned according to the manufacturer's protocol. Biotinylated DARPins were immobilized to a coating density of 27 resonance units (RU) for 1D DARPin and 25 RU for 2D DARPin. All analytes (3-fold dilution ranging from 500-6.17 nM) were injected in succession for 240 s and dissociation was recorded for 10800 s using a constant flow of 100 μl/min.

NCI-H82 tumors = assay: Efficacy (tumor growth) in NCI-H82 tumor model; assay type: in vivo, mouse; details: for Mean Diff.: Dunnett's multiple comparisons test, tumor volume in mm^3, NCI-H82, R2G2 mice
Experimental: To determine the efficacy of radio-labelled (Pb-212) DARPin (MAM279) conjugate in inhibiting the growth of tumors that express DLL3, different dose regimens (single or repeated dose) of the conjugate were tested in a relevant mouse tumor model (NCI-H82).
Animals were under observation daily and 3× per week tumors were measured by caliper. Animals were sacrificed when tumors reached 1500 to 2000 mm^3 or if termination criteria were met. The data were expressed as average+/−SEM of tumor volume in mm^3.
To determine the efficacy of more frequent repeat-dosing of radio-labelled (Pb-212) DARPin (MAM279) conjugate in inhibiting the growth of tumors that express DLL3, a weekly repeat-dosing regimen of the conjugate was tested in a relevant mouse tumor model (NCI-H82).
Corresponding injections of buffer only were done as control. The first weekly injection of radio-labeled molecules was done 14 days after xenografting the NCI-H82 cells. Animals were under observation daily and 3× per week tumors were measured by caliper. Animals were sacrificed when tumors reached 1500 to 2000 mm^3 or if termination criteria were met. The data were expressed as average+/−SEM of tumor volume in mm^3. Results are shown in FIGS. 20A to 20D and Table 23.

B1: Rova: Rova antibody, DLL3-binding benchmark antibody used as positive control and comparison (antibody, chains of the INN, looked up, V domains shown)
VH: QVQLVQSGAEVKKPGASVKVSCKASGYTFTNYGMNWVRQAPGQGLEWMGWINTYTGEPTYADDFKGRVTMTTDTSTSTAYMELRSLRSDDTAVYYCARIGDSSPSDYWGQGTLVTVSS
VL: EIVMTQSPATLSVSPGERATLSCKASQSVSNDVVWYQQKPGQAPRLLIYYASNRYTGIPARFSGSGSGTEFTLTISSLQSEDFAVYYCQQDYTSPWTFGQGTKLEIK
Mean Diff. (hDLL3-MC38 tumors; Dunnett's multiple comparisons test, Buffer vs. 3 × 10μCi (1 week apart)): 251.6 | Mean Diff. (hDLL3-MC38 tumors; Tukey's multiple comparisons test, Buffer vs. 3 × 10μCi): 251.6

B2: MAM279: Two domain (2D) ankyrin repeat protein: serum albumin-specific domain (SEQ ID NO: 7), PT linker, DLL3-specific domain of MAM093 (protein)
chain: DLGKKLLEAARAGQDDEVRELLKAGADVNAKDYFSHTPLHLAARNGHLKIVEVLLKAGADVNAKDFAGKTPLHLAADAGHLEIVEVLLKAGADVNAQDIFGKTPADIAADAGHEDIAEVLQKAAGSPTPTPTTPTPTPTTPTPTPTGSDLGKKLLAAAAQGQDDEVRELLKAGANVNAKDLFGYTPLHLAAWRGHLEIVEVLLKAGADVNAKDAAGETPLHLAAWFGHLEIVEVLLKAGADVNAQDLQGKTPADLAAKEGHEDIAEVLQKAA
modifications: Ankyrin repeat protein (MAM279)
Kd (mouse DLL3-ECD): 0.0839 µM | Koff mouse DLL3-ECD (mouse DLL3-ECD): 0.00282 s⁻¹ | Kon mouse DLL3-ECD (mouse DLL3-ECD): 33700 M⁻¹ s⁻¹

B3: MAM279 conjugate: SEQ ID NO: 15 conjugated to DOTAM-maleimide, labelled with Pb-212 (natural lead in PK studies) (conjugate)
chain: GSDLGKKLLEAARAGQDDEVRELLKAGADVNAKDYFSHTPLHLAARNGHLKIVEVLLKAGADVNAKDFAGKTPLHLAADAGHLEIVEVLLKAGADVNAQDIFGKTPADIAADAGHEDIAEVLQKAAGSPTPTPTTPTPTPTTPTPTPTGSDLGKKLLAAAAQGQDDEVRELLKAGANVNAKDLFGYTPLHLAAWRGHLEIVEVLLKAGADVNAKDAAGETPLHLAAWFGHLEIVEVLLKAGADVNAQDLQGKTPADLAAKEGHEDIAEVLQKAAGSGSC
modifications: DOTAM-maleimide, Pb-212 label; Ankyrin repeat protein with tag (GS-MAM279-tag)
Mean Diff. (NCI-H82 tumors; Buffer only vs. (4 × 10μCi, 1 wk)): 731.9 | Mean Diff. (NCI-H82 tumors; Buffer vs. conjugate (1 × 10μCi)): 140.6 | Mean Diff. (NCI-H82 tumors; Buffer vs. conjugate (4 × 10μCi, injections 2 weeks apart)): 429.7 | efficacy in inhibiting the growth of NCI-H82 tumors (NCI-H82 tumors; Pb-212 labelled conjugate, 1×10 μCi or 4×10 μCi (2 weeks apart), in words): good efficacy | potency versus benchmark antibody (Rova) conjugate (NCI-H82 tumors; both at 4×10 μCi, NCI-H82 tumors, in words): more potent than the benchmark antibody (Rova) conjugate | complete tumor regression (NCI-H82 tumors; four times weekly at 10 μCi, NCI-H82, day 63 post-tumor cell xenograft): about 70 % of mice | efficacy in inhibiting the growth of NCI-H82 tumors (NCI-H82 tumors; injected four times weekly at 10 μCi, in words): strong and statistically significant efficacy
